Test results reported in patent US20210024615A1 (LIVERPOOL SCHOOL OF TROPICAL MEDICINE, published 2021).

T1: Siglec-4 (UniProt P20916 20-516)
T1 construct: also called MAG
T1 sequence (looked up): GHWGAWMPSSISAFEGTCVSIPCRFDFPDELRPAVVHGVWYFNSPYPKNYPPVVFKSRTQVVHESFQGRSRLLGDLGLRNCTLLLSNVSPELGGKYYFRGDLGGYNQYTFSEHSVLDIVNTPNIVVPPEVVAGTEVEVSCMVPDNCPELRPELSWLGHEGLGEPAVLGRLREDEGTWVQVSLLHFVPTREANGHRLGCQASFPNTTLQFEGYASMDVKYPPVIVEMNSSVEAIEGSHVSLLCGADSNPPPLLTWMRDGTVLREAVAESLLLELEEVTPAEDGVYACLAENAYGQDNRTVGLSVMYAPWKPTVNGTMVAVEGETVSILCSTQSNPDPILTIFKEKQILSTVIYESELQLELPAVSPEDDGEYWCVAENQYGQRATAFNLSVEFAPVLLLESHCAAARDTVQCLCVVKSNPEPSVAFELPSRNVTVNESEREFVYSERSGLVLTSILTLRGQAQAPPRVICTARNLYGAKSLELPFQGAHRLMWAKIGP

T2: dectin-1 (UniProt Q9BXN2-2 66-201)
T2 construct: also called dec-1
T2 sequence (looked up): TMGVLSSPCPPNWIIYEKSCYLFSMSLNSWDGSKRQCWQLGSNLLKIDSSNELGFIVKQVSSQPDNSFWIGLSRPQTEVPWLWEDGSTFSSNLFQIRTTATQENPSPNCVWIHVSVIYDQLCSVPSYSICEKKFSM

T3: dectin-2 (UniProt Q6EIG7 46-209)
T3 construct: also called dec-2
T3 sequence (looked up): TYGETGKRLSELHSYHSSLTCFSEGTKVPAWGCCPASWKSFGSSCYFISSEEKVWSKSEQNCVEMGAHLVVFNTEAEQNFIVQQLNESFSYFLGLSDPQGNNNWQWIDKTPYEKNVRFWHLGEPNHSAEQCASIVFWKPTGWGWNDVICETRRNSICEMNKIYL

T4: tetrameric human DC-SIGN (human, UniProt Q9NNX6 66-404)
T4 sequence (looked up): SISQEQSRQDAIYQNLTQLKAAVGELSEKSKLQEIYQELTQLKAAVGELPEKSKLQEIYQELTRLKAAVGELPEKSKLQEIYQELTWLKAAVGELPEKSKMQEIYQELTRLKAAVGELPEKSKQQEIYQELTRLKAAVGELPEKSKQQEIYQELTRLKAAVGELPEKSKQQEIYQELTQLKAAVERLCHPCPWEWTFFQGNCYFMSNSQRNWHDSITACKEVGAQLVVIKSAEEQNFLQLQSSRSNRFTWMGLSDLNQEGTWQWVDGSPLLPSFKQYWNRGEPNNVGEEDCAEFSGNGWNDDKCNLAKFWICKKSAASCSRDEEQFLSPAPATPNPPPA

T5: clec-4a (UniProt Q9UMR7 70-237)
T5 construct: also called DCIR
T5 sequence (looked up): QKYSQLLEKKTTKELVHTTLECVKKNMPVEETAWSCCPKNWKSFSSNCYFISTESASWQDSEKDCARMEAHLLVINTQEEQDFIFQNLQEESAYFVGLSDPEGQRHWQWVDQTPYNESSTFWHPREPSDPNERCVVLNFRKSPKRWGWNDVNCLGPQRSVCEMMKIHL

T6: clec-4d (UniProt Q8WXI8 39-215)
T6 sequence (looked up): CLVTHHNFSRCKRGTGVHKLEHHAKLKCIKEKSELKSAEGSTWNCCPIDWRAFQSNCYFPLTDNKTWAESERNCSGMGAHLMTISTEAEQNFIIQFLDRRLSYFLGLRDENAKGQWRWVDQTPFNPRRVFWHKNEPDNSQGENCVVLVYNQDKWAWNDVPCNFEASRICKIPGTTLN

T7: MMR (UniProt P22897 19-1383)
T7 sequence (looked up): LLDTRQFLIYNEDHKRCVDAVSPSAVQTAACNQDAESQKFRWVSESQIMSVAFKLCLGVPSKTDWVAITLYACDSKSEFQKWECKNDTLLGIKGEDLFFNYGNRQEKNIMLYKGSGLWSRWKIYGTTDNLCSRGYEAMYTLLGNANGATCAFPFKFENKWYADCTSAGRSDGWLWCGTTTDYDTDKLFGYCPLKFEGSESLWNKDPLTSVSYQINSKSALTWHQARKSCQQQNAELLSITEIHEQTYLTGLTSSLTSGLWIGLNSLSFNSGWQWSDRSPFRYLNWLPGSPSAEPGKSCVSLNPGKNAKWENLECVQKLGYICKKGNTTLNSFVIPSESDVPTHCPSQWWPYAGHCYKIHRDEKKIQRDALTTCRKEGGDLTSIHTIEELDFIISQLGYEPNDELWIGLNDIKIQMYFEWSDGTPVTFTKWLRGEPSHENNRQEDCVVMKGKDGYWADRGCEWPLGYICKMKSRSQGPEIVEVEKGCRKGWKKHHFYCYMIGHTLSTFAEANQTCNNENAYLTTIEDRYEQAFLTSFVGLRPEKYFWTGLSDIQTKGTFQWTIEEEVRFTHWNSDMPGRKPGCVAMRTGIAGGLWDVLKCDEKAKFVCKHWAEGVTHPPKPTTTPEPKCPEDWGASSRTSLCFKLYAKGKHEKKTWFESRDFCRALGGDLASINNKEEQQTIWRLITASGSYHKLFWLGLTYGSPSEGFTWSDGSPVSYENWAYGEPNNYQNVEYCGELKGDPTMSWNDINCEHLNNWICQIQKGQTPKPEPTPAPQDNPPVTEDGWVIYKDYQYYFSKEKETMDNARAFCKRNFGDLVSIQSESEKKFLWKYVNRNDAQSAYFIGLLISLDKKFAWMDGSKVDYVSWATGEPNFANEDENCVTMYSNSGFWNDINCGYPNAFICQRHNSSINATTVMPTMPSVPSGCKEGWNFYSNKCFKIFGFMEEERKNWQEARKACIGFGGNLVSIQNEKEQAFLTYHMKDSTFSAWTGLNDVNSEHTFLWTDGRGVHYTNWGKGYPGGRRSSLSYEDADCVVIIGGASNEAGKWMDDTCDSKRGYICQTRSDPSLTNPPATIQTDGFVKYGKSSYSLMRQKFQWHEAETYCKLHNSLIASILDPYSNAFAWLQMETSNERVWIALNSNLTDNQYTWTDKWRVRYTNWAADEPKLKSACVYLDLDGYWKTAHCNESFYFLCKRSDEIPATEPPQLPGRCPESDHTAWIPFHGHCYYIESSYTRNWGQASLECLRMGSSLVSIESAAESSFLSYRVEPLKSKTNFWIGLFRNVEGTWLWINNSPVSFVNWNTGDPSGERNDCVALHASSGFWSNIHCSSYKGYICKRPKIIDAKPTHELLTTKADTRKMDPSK

T8: human FcγRIIB (human, UniProt P31994 46-217)
T8 construct: also called CD32B
T8 sequence (looked up): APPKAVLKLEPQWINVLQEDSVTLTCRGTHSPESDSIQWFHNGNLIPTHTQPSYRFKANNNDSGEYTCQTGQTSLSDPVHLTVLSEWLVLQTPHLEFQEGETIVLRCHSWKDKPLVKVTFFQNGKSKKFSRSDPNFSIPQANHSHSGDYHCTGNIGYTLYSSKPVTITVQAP

T9: CD23 (UniProt P06734 48-321)
T9 sequence (looked up): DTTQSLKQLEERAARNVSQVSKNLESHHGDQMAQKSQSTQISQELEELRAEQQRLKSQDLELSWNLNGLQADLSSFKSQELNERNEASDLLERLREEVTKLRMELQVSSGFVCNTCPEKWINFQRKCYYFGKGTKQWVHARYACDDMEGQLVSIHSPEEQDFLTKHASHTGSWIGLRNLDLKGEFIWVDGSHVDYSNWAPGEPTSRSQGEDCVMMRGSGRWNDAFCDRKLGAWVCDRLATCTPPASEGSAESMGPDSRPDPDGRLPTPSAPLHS

B1: [change]/[change] (other)
chain: DKTHTCPPCPAPELLGGPSVFLFPPKPKDTLMISRTPEVTCVVVDVSHEDPEVKFNWYVDGVEVHNAKTKPREEQYASTYRVVSVLTVCLQDWLNGKEYKCKVSNKALPAPIEKTISKAKGQPREPQVYTLPPSREEMTKNQVSLTCLVKGFYPSDIAVEWESNGQPENNYKTTPPVLDSDGSFFLYSKLTVDKSRWQQGNVFSCSVMHEALHNHYTQKSLSLSPGKLVLGPPLYNVSLVMSDTAGTAY
B2: [change]/[change] (other)
chain: NKTHTCPPCPAPELLGGPSVFLFPPKPKDTLMISRTPEVTCVVVDVSHEDPEVKFNWYVDGVEVHNAKTKPREEQYNSTYRVVSVLTVCLQDWLNGKEYKCKVSNKALPAPIEKTISKAKGQPREPQVYTLPPSREEMTKNQVSLTCLVKGFYPSDIAVEWESNGQPENNYKTTPPVLDSDGSFFLYSKLTVDKSRWQQGNVFSCSVMHEALHNHYTQKSLSLSPGKLVLGPPLYNVSLVMSDTAGTAY
B3: [change]/[change]/[change] (other)
chain: DKTHTCPPCPAPELLGGPSVFLFPPKPKDTLMISRTPEVTCVVVDVSHEDPEVKFNWYVDGVEVHNAKTKPREEQYASTYRVVSVLTVCLQDWLNGKEYKCKVSNKALPAPIEKTISKAKGQPREPQVYTLPPSREEMTKNQVSLTCLVKGFYPSDIAVEWESNGQPENNYKTTPPVLDSDGSFFLYSKLTVDKSRWQQGNVFSCSVMHEALHNHYTQKSLSLSPGKLVLGPPLYAVSLVMSDTAGTAY
B4: [change]/[change]/[change] (other)
chain: NKTHTCPPCPAPELLGGPSVFLFPPKPKDTLMISRTPEVTCVVVDVSHEDPEVKFNWYVDGVEVHNAKTKPREEQYASTYRVVSVLTVCLQDWLNGKEYKCKVSNKALPAPIEKTISKAKGQPREPQVYTLPPSREEMTKNQVSLTCLVKGFYPSDIAVEWESNGQPENNYKTTPPVLDSDGSFFLYSKLTVDKSRWQQGNVFSCSVMHEALHNHYTQKSLSLSPGKLVLGPPLYNVSLVMSDTAGTAY

Key:
Assay in all cases: ELISA
Siglec-2 = target: T10, Siglec-2 (UniProt P20273 20-687)
T10 construct: also called CD22

Siglec-3 = Siglec-3 (UniProt P20138 18-259)
Chain of Siglec-3 (P20138 18-259 limits assumed): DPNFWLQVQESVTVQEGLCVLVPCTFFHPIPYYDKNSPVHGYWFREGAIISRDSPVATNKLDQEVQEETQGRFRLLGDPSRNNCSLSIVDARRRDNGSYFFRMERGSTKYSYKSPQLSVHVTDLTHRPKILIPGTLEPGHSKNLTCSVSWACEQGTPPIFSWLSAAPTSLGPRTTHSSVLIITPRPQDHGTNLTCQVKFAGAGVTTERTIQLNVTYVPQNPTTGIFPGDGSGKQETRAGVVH

Siglec-4 = target: T1, Siglec-4
dectin-1 = target: T2, dectin-1
dectin-2 = target: T3, dectin-2
tetrameric human DC-SIGN = target: T4, tetrameric human DC-SIGN
clec-4a = target: T5, clec-4a
clec-4d = target: T6, clec-4d
MBL = MBL (UniProt P11226 21-248)
Chain of MBL (P11226 21-248 limits assumed): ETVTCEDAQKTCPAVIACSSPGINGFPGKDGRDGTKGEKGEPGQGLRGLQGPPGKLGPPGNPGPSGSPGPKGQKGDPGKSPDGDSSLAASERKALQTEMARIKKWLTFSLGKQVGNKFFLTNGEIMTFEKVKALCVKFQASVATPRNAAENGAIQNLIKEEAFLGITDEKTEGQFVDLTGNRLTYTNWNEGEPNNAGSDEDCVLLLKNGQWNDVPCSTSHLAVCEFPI

MMR = target: T7, MMR
human FcγRIIB = target: T8, human FcγRIIB
human FcγRIIIA = human FcγRIIIA (human, UniProt P08637 17-208)
Chain of human FcγRIIIA (P08637 17-208 limits assumed): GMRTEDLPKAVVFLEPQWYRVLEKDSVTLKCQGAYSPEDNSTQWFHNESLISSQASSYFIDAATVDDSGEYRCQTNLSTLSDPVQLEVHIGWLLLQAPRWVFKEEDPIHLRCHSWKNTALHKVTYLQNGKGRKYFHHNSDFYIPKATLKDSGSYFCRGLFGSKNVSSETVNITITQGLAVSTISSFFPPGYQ

C1q = C1q (UniProt P02745 23-245; P02746 28-253; P02747 29-245)
Chain of C1q (P02745 23-245, chain 1 of 3): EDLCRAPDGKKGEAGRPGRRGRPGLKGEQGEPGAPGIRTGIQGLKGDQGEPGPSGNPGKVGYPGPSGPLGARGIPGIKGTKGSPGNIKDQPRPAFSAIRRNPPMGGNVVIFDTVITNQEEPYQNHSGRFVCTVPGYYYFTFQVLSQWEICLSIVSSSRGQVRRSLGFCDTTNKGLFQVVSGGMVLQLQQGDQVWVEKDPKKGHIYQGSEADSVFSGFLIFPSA
Chain of C1q (P02746 28-253, chain 2 of 3): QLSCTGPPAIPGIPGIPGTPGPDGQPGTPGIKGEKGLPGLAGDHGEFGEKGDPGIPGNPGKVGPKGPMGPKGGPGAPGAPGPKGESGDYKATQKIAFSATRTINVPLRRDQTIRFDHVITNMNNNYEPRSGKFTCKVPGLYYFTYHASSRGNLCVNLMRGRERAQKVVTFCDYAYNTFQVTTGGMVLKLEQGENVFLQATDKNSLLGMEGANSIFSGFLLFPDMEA
Chain of C1q (P02747 29-245, chain 3 of 3): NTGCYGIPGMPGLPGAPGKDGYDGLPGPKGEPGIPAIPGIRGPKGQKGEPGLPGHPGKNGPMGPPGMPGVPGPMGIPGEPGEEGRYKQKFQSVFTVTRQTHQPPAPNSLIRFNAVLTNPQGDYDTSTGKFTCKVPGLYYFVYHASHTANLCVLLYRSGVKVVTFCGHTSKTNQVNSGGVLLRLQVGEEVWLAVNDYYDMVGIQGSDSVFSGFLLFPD

CD23 = target: T9, CD23

Row | Binder | binding result (Siglec-2) | binding result (Siglec-3) | binding result (Siglec-4) | binding result (dectin-1) | binding result (dectin-2) | binding result (tetrameric human DC-SIGN) | binding result (clec-4a) | binding result (clec-4d) | binding result (MBL) | binding result (MMR) | binding result (human FcγRIIB) | binding result (human FcγRIIIA) | binding result (C1q) | binding result (CD23)
1 | B1 | no binding | no binding | no binding | no binding | no binding | no binding | no binding | no binding | no binding | no binding | no binding | no binding | no binding | –
2 | B2 | – | no binding | – | no binding | no binding | no binding | no binding | no binding | no binding | no binding | – | no binding | no binding | –
3 | B3 | – | no binding | – | – | – | binds | no binding | no binding | – | – | binds | no binding | – | no binding
4 | B4 | no binding | no binding | no binding | no binding | no binding | no binding | no binding | no binding | no binding | no binding | no binding | no binding | no binding | –
